The record followed here is patent US20230241168A1 (ALPINE IMMUNE SCIENCES, published 2023).

To fix the notation:
T1: recombinant human APRIL (human, UniProt O75888 105-250, limits assumed)
T1 sequence (looked up): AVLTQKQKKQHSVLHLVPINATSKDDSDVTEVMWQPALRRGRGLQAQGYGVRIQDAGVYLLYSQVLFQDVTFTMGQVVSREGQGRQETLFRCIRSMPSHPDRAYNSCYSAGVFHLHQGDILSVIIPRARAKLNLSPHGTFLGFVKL

B1: Fc (G4S)2 BCMA (356) (Fc fusion)
chain: EPKSSDKTHTCPPCPAPEAEGAPSVFLFPPKPKDTLMISRTPEVTCVVVDVSHEDPEVKFNWYVDGVEVHNAKTKPREEQYNSTYRVVSVLTVLHQDWLNGKEYKCKVSNKALPAPIEKTISKAKGQPREPQVYTLPPSRDELTKNQVSLTCLVKGFYPSDIAVEWESNGQPENNYKTTPPVLDSDGSFFLYSKLTVDKSRWQQGNVFSCSVMHEALHNHYTQKSLSLSPGGGGGSGGGGSLQMAGQCSQNEYFDSLLHACIPCQLRCSSNTPPLTCQRYCNASVTNSVKGTNA
B2: CTLA-4 165 GSG4S Fc (G4S)2 BCMA 356 (Fc fusion)
chain: KAMHVAQPAVVLASSRGIASFVCEYASPGKATEVRVTVLRQADSQVTEVCAASYMMGNELTFPDDSICTGTSSGNQVNLTIQGLRAMDTGLYICKVEQMYPPPYYLGIGNGTQIYVIDPEPCPDSDGSGGGGSEPKSSDKTHTCPPCPAPEAEGAPSVFLFPPKPKDTLMISRTPEVTCVVVDVSHEDPEVKFNWYVDGVEVHNAKTKPREEQYNSTYRVVSVLTVLHQDWLNGKEYKCKVSNKALPAPIEKTISKAKGQPREPQVYTLPPSRDELTKNQVSLTCLVKGFYPSDIAVEWESNGQPENNYKTTPPVLDSDGSFFLYSKLTVDKSRWQQGNVFSCSVMHEALHNHYTQKSLSLSPGGGGGSGGGGSLQMAGQCSQNEYFDSLLHACIPCQLRCSSNTPPLTCQRYCNASVTNSVKGTNA
B3: CTLA-4 92 GSG4S Fc (G4S)2 BCMA 356 (Fc fusion)
chain: B2 chain with G29W, S53T, N58S, Q82R, Y105L
B4: TACI 516 (EAAAK)6 CTLA 4 668 (other)
chain: VAMRSCPEEQYWDPLLGTCMSCKTICNHQSQRTCAAFCRSLSCRKEQGKFYDHLLRDCISCASICGQHPKQCAYFCENKLRSEAAAKEAAAKEAAAKEAAAKEAAAKEAAAKKAMHVAQPAVVLASSRGIASFVCEYASPGKATEVRVTVLRQADSQVTEVCAATYMMGNELTFLDDSICTGTSSGNQVNLTIQGLRAMDTGLYICKVELMYPPPYYLGIGNGTQIYVIDPEPSPDSDQDYKDDDDKHHHHHH
B5: TACI 528 (G4S)3 CTLA 4 668 (other)
chain: SLSCRKEQGKFYDHLLRDCISCASICGQHPKQCAYFCENKLRSGGGGSGGGGSGGGGSKAMHVAQPAVVLASSRGIASFVCEYASPGKATEVRVTVLRQADSQVTEVCAATYMMGNELTFLDDSICTGTSSGNQVNLTIQGLRAMDTGLYICKVELMYPPPYYLGIGNGTQIYVIDPEPSPDSDQDYKDDDDKHHHHHH
B6: TACI 516 (G4S)3 CTLA 4 668 (other)
chain: VAMRSCPEEQYWDPLLGTCMSCKTICNHQSQRTCAAFCRSLSCRKEQGKFYDHLLRDCISCASICGQHPKQCAYFCENKLRSGGGGSGGGGSGGGGSKAMHVAQPAVVLASSRGIASFVCEYASPGKATEVRVTVLRQADSQVTEVCAATYMMGNELTFLDDSICTGTSSGNQVNLTIQGLRAMDTGLYICKVELMYPPPYYLGIGNGTQIYVIDPEPSPDSDQDYKDDDDKHHHHHH
B7: TACI 528 (EAAAK)6 CTLA 4 668 (other)
chain: SLSCRKEQGKFYDHLLRDCISCASICGQHPKQCAYFCENKLRSEAAAKEAAAKEAAAKEAAAKEAAAKEAAAKKAMHVAQPAVVLASSRGIASFVCEYASPGKATEVRVTVLRQADSQVTEVCAATYMMGNELTFLDDSICTGTSSGNQVNLTIQGLRAMDTGLYICKVELMYPPPYYLGIGNGTQIYVIDPEPSPDSDQDYKDDDDKHHHHHH

Changes are numbered by the printed parent chain. Numbers in names are those of the source.

The target of one assay is T1, recombinant human APRIL. The assay can be described thus: cell-based or functional assay.
Turning to B1, the “IC50 (nM) APRIL” value worked out at 42.7 nM and the “IC50 APRIL (Δ Parental vTD)” value came to 1 ratio.

As for B2, the “IC50 (nM) APRIL” value is 0.894 nM and the “IC50 APRIL (Δ Parental vTD)” value stood at 0 ratio.

On to B3, for which the “IC50 (nM) APRIL” value stood at 0.809 nM and the “IC50 APRIL (Δ Parental vTD)” value stood at 0 ratio.

As to B4, the “IC50 (nM) APRIL” value is 138 nM and the “IC50 APRIL (Δ Parental vTD)” value was 15 ratio.

Another assay concerns the target recombinant human BAFF (human, UniProt Q9Y275 134-285). The assay can be described thus: cell-based or functional assay.
Consider B5, for which the “IC50 (nM) BAFF” value worked out at 8.41 nM and the “IC50 BAFF (Δ Parental vTD)” value came to 3.3 ratio.

As to B6, the “IC50 (nM) BAFF” value turned out to be 8.75 nM and the “IC50 BAFF (Δ Parental vTD)” value is 3.4 ratio.

Regarding B1, the “IC50 (nM) BAFF” value was found to be 42.7 nM and the “IC50 BAFF (Δ Parental vTD)” value stood at 1 ratio.

Turning to B2, the “IC50 (nM) BAFF” value stood at 36.8 nM and the “IC50 BAFF (Δ Parental vTD)” value amounted to 0.9 ratio.

For B3, the “IC50 (nM) BAFF” value turned out to be 33.5 nM and the “IC50 BAFF (Δ Parental vTD)” value is 0.8 ratio.

Turning to B7, the “IC50 (nM) BAFF” value was found to be 5.18 nM and the “IC50 BAFF (Δ Parental vTD)” value is 2 ratio.

For the molecule B4, the “IC50 (nM) BAFF” value was determined as 3.42 nM and the “IC50 BAFF (Δ Parental vTD)” value was determined as 1.3 ratio.
